The values that follow come from patent US6693166 (HONG KONG UNIVERSITY OF SCIENCE AND TECHNOLOGY, dated 2004).

For this test, the target named is T1, GST-Cdk5.GST-Nck5a complex (Homo sapiens (Human), UniProt Q00535 1-292; Q15078 99-307).
T1 construct: also called Cdk5/Nck5a complex; Cdk5.Nck5a complex
The test is described as follows: steady state kinase kinetics with histone H1 peptide as substrate, Dixon plot; noncompetitive with respect to the substrate. How it is done: Peptide Inhibition of Cdk5 and Cdk2 Kinase Activity—Cdk5 kinase activity was assayed essentially as described previously, except that for each Cdk5 kinase reaction 1 µg of GST-Cdk5 was reconstituted with 2 µg of GST-Nck5a, and 1 µg of GST-Cdk2 was mixed with 3 µg of cyclin A-H6 in Cdk2 assays. The reconstituted complexes were added, in duplicate, to an assay mixture containing 30 mM MOPS, pH 7.4, 10 mM MgCl_2, 40 µM of the histone H1 peptide, 50 µM [γ-^32P]ATP, and various concentrations of various peptides at 30° C. for 30 min before measuring the Cdk5 and Cdk2 kinase activities.
Steady State Kinetic Experiments—All assay conditions were the same as in the inhibition assay described above, except that the reaction time was kept at 15 min so that the product formed was less than 5% of the total substrate concentration used. To determine suitable concentrations of the substrate and the inhibitor for the steady state kinetic experiments, the K_m value of GST-Cdk5.GST-Nck5a complex and a concentration-dependent inhibition profile of the enzyme by the α_N peptide were determined. […]
Kinetic Analysis of Cdk5 Inhibition by the α_N Peptide—We also analyzed the kinetic properties of the α_N peptide with respect to the kinase substrate, the histone H1 peptide.

B1: synthetic 28-residue Nck5a peptide corresponding to Ala146 to Asp173 of Nck5a (peptide)
peptide: ASTSELLRCLGEFLCRRCYRLKHLSPTD
notes: Chemically synthesised (Fmoc), purity above 95%; Gln145 of the recombinant 29-residue fragment was left out; also called αN peptide
By Ki is commonly meant a dissociation constant, usually derived from enzyme kinetics or from competition with a known ligand. Read a high Ki as lower affinity. For the molecule B1, the Ki is around 25 µM.
